Data as given in PMC12945441.

Molecular target: prefusion SARS-CoV-2 Omicron BA.1 S ectodomain trimer (SARS-CoV-2 Omicron BA.1)
Assay: cryo-EM structure

Substance “prefusion SARS-CoV-2 Omicron BA.1 S ectodomain trimer (domain or fragment)” has a stoichiometry N of 3.
